{"source": "paper PMC6929975", "about": "“A supramolecular protein chaperone for vaccine delivery” (Theranostics, 2020)", "key": {"[1]": {"biological_target": "Hepatitis B surface antigen (hepatitis B virus, UniProt P03138 1-389, fluorescent dye NT-647 (cysteine-reactive Monolith NT Protein Labelling Kit))", "experiment": "MST; proteins labelled with NT-647 held at constant concentration; Comp. 1 or 2 varied from 0.25 μM to 10 mM; PBS with 0.05% Tween-20, pH 7.4; Monolith NT.115, standard glass capillaries", "conditions": "both partners purified"}, "ovalbumin": {"biological_target": "T1, ovalbumin (UniProt P01012 1-386, fluorescent dye NT-647 (cysteine-reactive Monolith NT Protein Labelling Kit))", "T1 construct": "source: bought: InvivoGen (endotoxin free)", "T1 sequence (looked up)": "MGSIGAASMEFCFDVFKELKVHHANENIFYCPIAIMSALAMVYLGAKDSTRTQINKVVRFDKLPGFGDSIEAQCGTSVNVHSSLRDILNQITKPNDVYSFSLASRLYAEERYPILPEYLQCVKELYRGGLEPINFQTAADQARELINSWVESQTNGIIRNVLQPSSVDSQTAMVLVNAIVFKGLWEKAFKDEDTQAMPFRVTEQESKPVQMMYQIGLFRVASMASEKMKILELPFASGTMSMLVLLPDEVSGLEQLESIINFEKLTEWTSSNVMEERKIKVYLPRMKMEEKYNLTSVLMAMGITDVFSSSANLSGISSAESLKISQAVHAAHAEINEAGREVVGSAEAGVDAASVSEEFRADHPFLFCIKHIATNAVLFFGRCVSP", "experiment": "MST; proteins labelled with NT-647 held at constant concentration; Comp. 1 or 2 varied from 0.25 μM to 10 mM; PBS with 0.05% Tween-20, pH 7.4; Monolith NT.115, standard glass capillaries", "conditions": "both partners purified"}}, "note": "Starred links: 1 amine or outer side, 2 acyl side, 3 side chain; linkers in the order of their positions; H or OH if unused. Non-standard residues stand in square brackets, D forms with d. Groups on a side chain read outwards from the residue. *: point of attachment. Fbp = flurbiprofen, CC(C(=O)*)c1ccc(-c2ccccc2)c(F)c1; γGlu = O=C(O)[C@H](CCC(=O)[*:2])N[*:1]", "data": [{"binder": "Fbp-G[dF][dF][dY][dK]([γGlu-γGlu])-NH2 (SMILES CC(C(=O)NCC(=O)N[C@H](Cc1ccccc1)C(=O)N[C@H](Cc1ccccc1)C(=O)N[C@H](Cc1ccc(O)cc1)C(=O)N[C@H](CCCCNC(=O)CC[C@H](NC(=O)CC[C@H](N)C(=O)O)C(=O)O)C(N)=O)c1ccc(-c2ccccc2)c(F)c1, also called Comp; supramolecular protein chaperone; source: synthetic peptide (Fmoc SPPS on Rink resin, purified by HPLC))", "note": "[Fbp-G^DF^DF^DY^DK(γE)2-NH2]", "values": [{"measurement": "Kd", "setting": "[1]", "result": 68, "unit": "µM"}, {"measurement": "Kd", "setting": "ovalbumin", "result": 83.3, "unit": "µM"}]}]}
